# From patent publication US11278600B2, “Human alpha-galactosidase variants” (Codexis, Inc., priority 2014, dated 2022)
# B1: 210 (protein)
# chain: LDNGLARTPTMGWLHWERFMCNLDCQEEPDSCISEKLFMEMAELMVSEGWKDAGYEYLCIDDCWMAPQRDSEGRLQADPQRFPHGIRQLANYVHSKGLKLGIYADVGNKTCAGFPGSFGYYDIDAQTFADWGVDLLKFDGCYCDSLENLADGYKHMSLALNRTGRSIVYSCEWPLYMWPFQKPNYTEIRQYCNHWRNFADIDDSWASIKSILDWTSFNQERIVDVAGPGGWNDPDMLVIGNFGLSWNQQVTQMALWAIMAAPLFMSNDLRHISPQAKALLQDKDVIAINQDPLGKQGYQLRQGDNFEVWERPLSGLAWAVAMINRQEIGGPRSYTIAVASLGKGVACNPACFITQLLPVKRKLGLYNWTSRLRSHINPTGTVLLQLENTMQMSKDLLL
# modifications: Synthetic Polypeptide sequence of Variant No. 210 of mature Human GLA
# B2: 213 (protein)
# chain: LDNGLARTPTMGWLQWERFMCNLDCQEEPDSCISEKLFMEMAELMVSEGWKDAGYEYLCIDDCWMAPQRDSEGRLQADPQRFPHGIRQLANYVHSKGLKLGIYADVGNKTCAGFPGSFGYYDIDAQTFADWGVDLLKFDGCYCDSLENLADGYKHMSLALNRTGRSIVYSCEWPLYMWPFQKPNYTEIRQYCNHWRNFADIDDSWASIKSILDWTSFNQERIVDVAGPGGWNDPDMLVIGNFGLSWNQQVTQMALWAIMAAPLFMSNDLRHISPQAKALLQDKDVIAINQDPLGKQGYQLRQGDNFEVWERPLSGLAWAVAMINRQEIGGPRSYTIAVASLGKGVACNPACFITQLLPVKRKLGFYEWTSRLRSHINPTGTVLLQLENTMQMSKDLLL
# modifications: Synthetic Polypeptide sequence of Variant No. 213 of mature Human GLA
# B3: 215 (protein)
# chain: LDNGLARTPTMGWLHWERFMCNLDCQEEPDSCISEKLFMEMAELMVSEGWKDAGYEYLCIDDCWMAPQRDSEGRLQADPQRFPHGIRQLANYVHSKGLKLGIYADVGNKTCAGFPGSFGYYDIDAQTFADWGVDLLKFDGCYCDSLENLADGYKHMSLALNRTGRSIVYSCEWPLYMWPFQKPNYTEIRQYCNHWRNFADIDDSWASIKSILDWTSFNQERIVDVAGPGGWNDPDMLVIGNFGLSWNQQVTQMALWAIMAAPLFMSNDLRHISPQAKALLQDKDVIAINQDPLGKQGYQLRQGDNFEVWERPLSGLAWAVAMINRQEIGGPRSYTIAVASLGGGVACNPACFITQLLPVKRKLGFYEWTSRLRSHINPTGTVLLQLENTMQMSKDLLL
# modifications: Synthetic Polypeptide sequence of Variant No. 215 of mature Human GLA
# B4: 212 (protein)
# chain: LDNGLARTPTMGWLHWERFMCNLDCQEEPDSCISEKLFMEMAELMVSEGWKDAGYEYLCIDDCWMAPQRDSEGRLQADPQRFPHGIRQLANYVHSKGLKLGIYADVGNKTCAGFPGSFGYYDIDAQTFADWGVDLLKFDGCYCDSLENLADGYKHMSLALNRTGRSIVYSCEWPLYMWPFQKPNYTEIRQYCNHWRNFADIDDSWASIKSILDWTSFNQERIVDVAGPGGWNDPDMLVIGNFGLSWNQQVTQMALWAIMAAPLFMSNDLRHISPQAKALLQDKDVIAINQDPLGKQGYQLRQGDNFEVWERPLSGLAWAVAMINRQEIGGPRSYTIAVASLGKGVACNPACFITQLLPVKRKLGLYNWTSRLKSHVNPTGTVLLQLENTMQMSKDLLL
# modifications: Synthetic Polypeptide sequence of Variant No. 212 of mature Human GLA
# B5: 214 (protein)
# chain: LDNGLARTPTMGWLHWERFMCNLDCQEEPDSCISEKLFMEMAELMVSEGWKDAGYEYLCIDDCWMAPQRDSEGRLQADPQRFPHGIRQLANYVHSKGLKLGIYADVGNKTCAGFPGSFGYYDIDAQTFADWGVDLLKFDGCYCDSLENLADGYKHMSLALNRTGRSIVYSCEWPLYMWPFQKPNYTEIRQYCNHWRNFADIDDSWASIKSILDWTSFNQERIVDVAGPGGWNDPDMLVIGNFGLSWNQQVTQMALWAIMAAPLFMSNDLRHISPQAKALLQDKDVIAINQDPLGKQGYQLRQGDNFEVWERPLSGLAWAVAMINRQEIGGPRSYTIAVASLGDGVACNPACFITQLLPVKRKLGLYNWTSRLRSHINPTGTVLLQLENTMQMSKDLLL
# modifications: Synthetic Polypeptide sequence of Variant No. 214 of mature Human GLA
# B6: 211 (protein)
# chain: LDNGLARTPTMGWLHWERFMCNLDCQEEPDSCISEKLFMEMAELMVSEGWKDAGYEYLCIDDCWMAPQRDSEGRLQADPQRFPHGIRQLANYVHSKGLKLGIYADVGNKTCAGFPGSFGYYDIDAQTFADWGVDLLKFDGCYCDSLENLADGYKHMSLALNRTGRSIVYSCEWPLYMWPFQKPNYTEIRQYCNHWRNFADIDDSWASIKSILDWTSFNQERIVDVAGPGGWNDPDMLVIGNFGLSWNQQVTQMALWAIMAAPLFMSNDLRHISPQAKALLQDKDVIAINQDPLGKQGYQLRQGDNFEVWERPLSGLAWAVAMINRQEIGGPRSYTIAVASLGKGVACNPACFITQLLPVKRKLGLYNWTSRLRSHVNPTGTVLLQLENTMQMSKDLLL
# modifications: Synthetic Polypeptide sequence of Variant No. 211 of mature Human GLA
# How the values were obtained:
# Type in all cases: biochemical
# [1] = HTP-analysis of yeast culture supernatants, no challenge (MUGal hydrolysis); details: activity of the variant/activity of Rd2BB (SEQ ID NO: 10), yeast supernatant
# Outline: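 GLA variants expressed in yeast INVSc1, secreted into SD-Ura broth over 66-84 h at 30° C; clarified supernatants tested without challenge. Supernatant mixed with McIlvaine buffer pH 4.8 and 2 mM MUGal (citrate/KCl, pH 4.6), 37° C for 30-180 min, carbonate-quenched, fluorescence Ex 355/Em 448 nm.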
# [2] = HTP-analysis of supernatants pretreated with acid (MUGal hydrolysis); details: challenge at pH 4.2; activity of the variant/activity of Rd2BB (SEQ ID NO: 10); yeast supernatant
# Outline: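 Fluorescence of MUGal hydrolysis (Ex. 355 nm, Em. 448 nm) is read after sodium carbonate quench. The enzyme source is INVSc1 yeast culture supernatant, first exposed to pH 3.3-4.3 McIlvaine buffer at 37° C. for 1-3 h, then reacted at pH 4.8 for 30-180 minutes.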
# [3] = HTP-analysis of supernatants pretreated with base (MUGal hydrolysis); details: challenge at pH 7.6; activity of the variant/activity of Rd2BB (SEQ ID NO: 10); yeast supernatant
# Outline: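 GLA variants secreted from yeast INVSc1; culture supernatants pre-incubated with McIlvaine buffer pH 7.0–8.2 or 200 mM bicarbonate pH 9.1–9.7 at 37° C. for 1–18 h. Residual activity: MUGal (4 mM stock) hydrolysis at pH 4.3–4.8, 37° C., 30–180 min, carbonate quench; fluorescence Ex 355/Em 448 nm.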
Molecule,Relative Activity of GLA Variants After No Challenge (NC) [1],Relative Activity of GLA Variants After Challenge at pH 4.2 [2],Relative Activity of GLA Variants After Challenge at pH 7.6 [3]
B1,++ (++ = 1.5 to 2.5 relative activity over Rd2BB (SEQ ID NO: 10)),++ (++ = 1.5 to 2.5 relative activity over Rd2BB (SEQ ID NO: 10)),++ (++ = 1.5 to 2.5 relative activity over Rd2BB (SEQ ID NO: 10))
B2,+ (+ = 0.5 to 1.5 relative activity over Rd2BB (SEQ ID NO: 10)),− (− = <0.5 relative activity over Rd2BB (SEQ ID NO: 10)),− (− = <0.5 relative activity over Rd2BB (SEQ ID NO: 10))
B3,+ (+ = 0.5 to 1.5 relative activity over Rd2BB (SEQ ID NO: 10)),+ (+ = 0.5 to 1.5 relative activity over Rd2BB (SEQ ID NO: 10)),+ (+ = 0.5 to 1.5 relative activity over Rd2BB (SEQ ID NO: 10))
B4,++ (++ = 1.5 to 2.5 relative activity over Rd2BB (SEQ ID NO: 10)),++ (++ = 1.5 to 2.5 relative activity over Rd2BB (SEQ ID NO: 10)),++ (++ = 1.5 to 2.5 relative activity over Rd2BB (SEQ ID NO: 10))
B5,+++ (+++ = >2.5 relative activity over Rd2BB (SEQ ID NO: 10)),+++ (+++ = >2.5 relative activity over Rd2BB (SEQ ID NO: 10)),+++ (+++ = >2.5 relative activity over Rd2BB (SEQ ID NO: 10))
B6,++ (++ = 1.5 to 2.5 relative activity over Rd2BB (SEQ ID NO: 10)),++ (++ = 1.5 to 2.5 relative activity over Rd2BB (SEQ ID NO: 10)),++ (++ = 1.5 to 2.5 relative activity over Rd2BB (SEQ ID NO: 10))
